{"source": "patent EP4428145A1", "about": "“ANTIBACTERIAL PEPTIDE” (Sumitomo Chemical Company, Limited, priority 2021, dated 2024)", "assay_type_in_all_cases": "cell-based, Lactobacillus sakei", "key": {"L. sakei [1]": {"test_system": "L. sakei", "assay": "Thermal stability test, antimicrobial activity after heat treatment, spot-on-lawn (Experiment 7)", "set-up": "key to Antimicrobial activity after heat treatment / Antimicrobial activity, Untreated: -: Without antimicrobial activity; +: With antimicrobial activity; ++: With strong antimicrobial activity; +++: With very strong antimicrobial activity", "conditions": "for thermal stability of antimicrobial activity: result in words", "description": "(§1) Like in Experiment 1A, antimicrobial activity of the antimicrobial peptide was evaluated by a spot-on-lawn method. As the test bacteria, Lactobacillus sakei (NBRC15893) was used. After overnight culturing, the test bacteria were mixed and diluted with Lactobacilli AOAC agar so as to achieve a density of 4×10^7 CFU/mL, and the resultant was spread over an MRS plate containing 2% agar. The test liquid was spotted on the test bacteria, and incubated overnight at 30°C. The size of the growth inhibition circle of L. sakei was evaluated as the antimicrobial activity.\n(§2) Nisin A used in Examples was Nisin from Lactococcus lactis 2.5% (manufactured by Sigma-Aldrich corporation) that was used after concentration and purification. The details of nisin A are as described by J. C. Slootweg et al., J. Pept. Sci., 19, 692-699(2013). To 1 g of commercially available 2.5% nisin A (containing about 25 mg of nisin A), 25 mL of water was added, and the resultant was stirred for 15 minutes at room temperature. Centrifugation (15 minutes, 2500 rpm) was carried out to separate off the precipitate, and only the supernatant was transferred to another tube. To the resulting solution, 20 mL of dichloromethane was added. To collect the white precipitate that was present between the aqueous layer and the organic layer, the upper layer and the lower layer were removed. Another round of centrifugation (15 minutes, 2500 rpm) was carried out to remove, again, the upper layer and the lower layer. The intermediate layer that was sought after was dried in a reduced-pressure centrifuge and re-dissolved in 7.45 mL of water, and thereby a 1-mM purified Nisin product was obtained. The resulting purified product was used as nisin A in each stability test.\nThe test solution was subjected to heat treatment at 80°C for 10 minutes, or at 80°C for 30 minutes, or at 100°C for 10 minutes, or at 100°C for 30 minutes, or at 121°C for 15 minutes. By the same spot-on-lawn method as adopted in the above-mentioned antimicrobial activity test, the polypeptide was added in drops to form a growth inhibition circle of L. sakei, and thereby the antimicrobial activity of the polypeptide after heat treatment was evaluated. As a positive control (PC), culture supernatant of a nisin A-producing lactic acid bacterium (Lactococcus lactis ATCC-1 1454 strain) was used. A sample without the heat process was used as an untreated control."}, "L. sakei [2]": {"test_system": "L. sakei", "assay": "Wide pH-range stability test, antimicrobial activity after pH treatment, spot-on-lawn (Experiment 6)", "set-up": "key to Antimicrobial activity after pH treatment / Antimicrobial activity, Untreated: -: Without antimicrobial activity; +: With antimicrobial activity; ++: With strong antimicrobial activity; +++: With very strong antimicrobial activity", "conditions": "for Antimicrobial activity after pH treatment: 30°C", "description": "as §1\nEach peptide was redissolved and prepared in the following buffer; Sodium acetate-acetic acid (50 mM, pH4.0), Sodium phosphate (50 mM, pH7.4), glycine-NaOH (50 mM, pH10.0). The test solution thus prepared at the above-specified pH was incubated at 30°C. The duration of the incubation was 0 hours, 0.5 hours, 2 hours, 4 hours, 6 hours, and 24 hours, and at the completion of the incubation, TFA was added in a final concentration of 0.2%. […] By the same spot-on-lawn method as adopted in the above-mentioned antimicrobial activity test, the polypeptide was added in drops to form a growth inhibition circle of L. sakei, and thereby the antimicrobial activity of the polypeptide after pH treatment was evaluated. As a positive control (PC), culture supernatant of a nisin A-producing lactic acid bacterium (Lactococcus lactis ATCC-11454 strain) was used. A sample that was prepared solely with a 0.2% TFA aqueous solution was used as an untreated control.\nas §2"}, "L. sakei [3]": {"test_system": "L. sakei", "assay": "Oxidation stability test, antimicrobial activity after hydrogen peroxide treatment, spot-on-lawn (Experiment 8)", "set-up": "key to Antimicrobial activity, Before oxidation treatment / Antimicrobial activity, After oxidation treatment: -: Without antimicrobial activity; +: With antimicrobial activity; ++: With strong antimicrobial activity; +++: With very strong antimicrobial activity", "conditions": "for Antimicrobial activity, After oxidation treatment: 1-mM solution treated with 10 mM hydrogen peroxide at 40°C for 6 hours", "description": "as §1, §2\nThe method of oxidation treatment is as described by Toshihiro T. et al., J. Proteome Res., 12, 753-762(2013). To a 1-mM solution of lactobacin A or nisin A, hydrogen peroxide was added to achieve a final concentration of 10 mM, followed by reaction at 40°C for 6 hours. After the completion of reaction, the reaction liquid was diluted with water to achieve a polypeptide concentration of 10 µM or 1 µM. By the same spot-on-lawn method as adopted in the above-mentioned antimicrobial activity test, the polypeptide was added in drops to form a growth inhibition circle of L. sakei, and thereby the antimicrobial activity of the polypeptide after oxidation treatment was evaluated. Development of the oxidation reaction was calculated as a relative value of the peak area obtained by LC/MS measurement of the oxidation-treated test solution relative to the non- oxidation-treated test solution. As a positive control (PC), culture supernatant of a nisin A-producing lactic acid bacterium (Lactococcus lactis ATCC-11454 strain) was used."}}, "note": "Primed or numbered codes have the meaning given here. Where no end group is shown, it is not given here. [ ]: non-standard residue; d: D form. Dhb′ = not defined here; Dha = C=C(N)C(=O)O", "data": [{"substance": "nisin A (I[Dhb′]SI[Dha]LCTPGCKTGALMGCNMKTATCHCSIHV[Dha]K; thioether (positions not given here); not fully specified (some residues, bridges); also: lanthionine thioether crosslinks and dehydro residues, not placed; UniProt P13068 24-57, looked up) [Nisin from Lactococcus lactis 2.5% (Sigma-Aldrich) used after concentration and purification; known antimicrobial peptide]", "values": [{"measurement": "Antimicrobial activity after heat treatment", "setting": "L. sakei [1]; 10 µM, 80°C 10 mm", "result": "+"}, {"measurement": "Antimicrobial activity after heat treatment", "setting": "L. sakei [1]; 10 µM, 80°C 30 min", "result": "-"}, {"measurement": "Antimicrobial activity after heat treatment", "setting": "L. sakei [1]; 10 µM, 100°C 10 min", "result": "-"}, {"measurement": "Antimicrobial activity after heat treatment", "setting": "L. sakei [1]; 10 µM, 100°C 30 min", "result": "-"}, {"measurement": "Antimicrobial activity after heat treatment", "setting": "L. sakei [1]; 10 µM, 121°C 15 min", "result": "-"}, {"measurement": "Antimicrobial activity, Untreated", "setting": "L. sakei [1]; 10 µM, sample without the heat process", "result": "++"}, {"measurement": "thermal stability of antimicrobial activity", "setting": "L. sakei [1]; any heat treatment beyond 80°C for 10 minutes", "result": "lost its antimicrobial activity"}, {"measurement": "thermal stability of antimicrobial activity", "setting": "L. sakei [1]; heat treatment at 80°C for 10 minutes", "result": "retained its activity"}, {"measurement": "Antimicrobial activity after pH treatment", "setting": "L. sakei [2]; 10 µM, pH 4.0, 0 hr", "result": "++"}, {"measurement": "Antimicrobial activity after pH treatment", "setting": "L. sakei [2]; 10 µM, pH 4.0, 0.5 hr", "result": "++"}, {"measurement": "Antimicrobial activity after pH treatment", "setting": "L. sakei [2]; 10 µM, pH 4.0, 2 hr", "result": "++"}, {"measurement": "Antimicrobial activity after pH treatment", "setting": "L. sakei [2]; 10 µM, pH 4.0, 4 hr", "result": "+"}, {"measurement": "Antimicrobial activity after pH treatment", "setting": "L. sakei [2]; 10 µM, pH 4.0, 6 hr", "result": "+"}, {"measurement": "Antimicrobial activity after pH treatment", "setting": "L. sakei [2]; 10 µM, pH 4.0, 24 hr", "result": "+"}, {"measurement": "Antimicrobial activity after pH treatment", "setting": "L. sakei [2]; 10 µM, pH 7.4, 0 hr", "result": "-"}, {"measurement": "Antimicrobial activity after pH treatment", "setting": "L. sakei [2]; 10 µM, pH 7.4, 0.5 hr", "result": "-"}, {"measurement": "Antimicrobial activity after pH treatment", "setting": "L. sakei [2]; 10 µM, pH 7.4, 2 hr", "result": "-"}, {"measurement": "Antimicrobial activity after pH treatment", "setting": "L. sakei [2]; 10 µM, pH 7.4, 4 hr", "result": "-"}, {"measurement": "Antimicrobial activity after pH treatment", "setting": "L. sakei [2]; 10 µM, pH 7.4, 6 hr", "result": "-"}, {"measurement": "Antimicrobial activity after pH treatment", "setting": "L. sakei [2]; 10 µM, pH 7.4, 24 hr", "result": "-"}, {"measurement": "Antimicrobial activity after pH treatment", "setting": "L. sakei [2]; 10 µM, pH 10.0, 0 hr", "result": "-"}, {"measurement": "Antimicrobial activity after pH treatment", "setting": "L. sakei [2]; 10 µM, pH 10.0, 0.5 hr", "result": "+"}, {"measurement": "Antimicrobial activity after pH treatment", "setting": "L. sakei [2]; 10 µM, pH 10.0, 2 hr", "result": "-"}, {"measurement": "Antimicrobial activity after pH treatment", "setting": "L. sakei [2]; 10 µM, pH 10.0, 4 hr", "result": "-"}, {"measurement": "Antimicrobial activity after pH treatment", "setting": "L. sakei [2]; 10 µM, pH 10.0, 6 hr", "result": "-"}, {"measurement": "Antimicrobial activity after pH treatment", "setting": "L. sakei [2]; 10 µM, pH 10.0, 24 hr", "result": "-"}, {"measurement": "Antimicrobial activity, Untreated", "setting": "L. sakei [2]; 10 µM, untreated control prepared solely with 0.2% TFA aqueous solution", "result": "++"}, {"measurement": "pH stability of antimicrobial activity", "setting": "L. sakei [2]; result in words, neutral range and alkaline range", "result": "lost its antimicrobial activity"}, {"measurement": "Antimicrobial activity, Before oxidation treatment", "setting": "L. sakei [3]; 1 µM", "result": "+"}, {"measurement": "Antimicrobial activity, Before oxidation treatment", "setting": "L. sakei [3]; 10 µM", "result": "++"}, {"measurement": "Antimicrobial activity, After oxidation treatment", "setting": "L. sakei [3]; diluted to 1 µM", "result": "-"}, {"measurement": "Antimicrobial activity, After oxidation treatment", "setting": "L. sakei [3]; diluted to 10 µM", "result": "-"}, {"measurement": "oxidation stability of antimicrobial activity", "setting": "L. sakei [3]; result in words, after oxidation treatment with 10-mM hydrogen peroxide", "result": "lost its antimicrobial activity"}]}]}
